Numbering of substitutions follows the chain as printed. Names and notes keep the numbering of the source.
B1: NOV1 (Novosphingobium aromaticivorans DSM 12444) (protein)
chain: MAQFPNTPSFTGFNTPSRIEADIADLAHEGTIPQGLNGAFYRVQPDPQFPPRLDDDIAFNGDGMITRFHIHDGQVDFRQRWAKTDKWKLENAAGKALFGAYRNPLTDDEAVKGEIRSTANTNAFVFGGKLWAMKEDSPALVMDPATMETFGFEKFGGKMTGQTFTAHPKVDPKTGNMVAIGYAASGLCTDDVTYMEVSPEGELVREVWFKVPYYCMMHDFGITEDYLVLHIVPSIGSWERLEQGKPHFGFDTTMPVHLGIIPRRDGVRQEDIRWFTRDNCFASHVLNAWQEGTKIHFVTCEAKNNMFPFFPDVHGAPFNGMEAMSHPTDWVVDMASNGEDFAGIVKLSDTAAEFPRIDDRFTGQKTRHGWFLEMDMKRPVELRGGSAGGLLMNCLFHKDFETGREQHWWCGPVSSLQEPCFVPRAKDAPEGDGWIVQVCNRLEEQRSDLLIFDALDIEKGPVATVNIPIRLRFGLHGNWANADEIGLAEKVLAA
B2: NOV1 (Novosphingobium aromaticivorans DSM 12444; S283F) (protein)
chain: B1 chain with S283F

What was measured:
purified protein [1] = substrate: CC=Cc1ccc(O)c(OC)c1; experiment: purified protein; assay type: biochemical, Novosphingobium aromaticivorans; conditions: apparent, 0.1 M Tris-HCl pH 9, room temperature
purified protein [2] = substrate: Oc1ccc(/C=C/c2cc(O)cc(O)c2)cc1; experiment: purified protein; assay type: biochemical, Novosphingobium aromaticivorans; conditions: apparent, 0.1 M Tris-HCl pH 9, room temperature

Protein	Km (purified protein [1]) [µM]	kcat (purified protein [1]) [s⁻¹]	kcat/Km (purified protein [1]) [M⁻¹ s⁻¹]	Km (purified protein [2]) [µM]	kcat (purified protein [2]) [s⁻¹]	kcat/Km (purified protein [2]) [M⁻¹ s⁻¹]
B1	600 ± 100	7.3 ± 0.2	12200 ± 2000	60 ± 10	0.38 ± 0.02	6300 ± 200
B2	800 ± 100	14.5 ± 0.8	18100 ± 4000	227 ± 2	0.078 ± 0.004	340 ± 20

Reference: article PMC9851154
